The values below come from the DeepSol protein solubility set.

The nature of the series: soluble on expression in E. coli; label from the status in PepcDB or PDB records.
Regarding “MNLNTPVEIPSGFTPISHAQQLLIMGSCFAENIGTLLAENKFRIDINPFGILYNPRSISMALREIISQKQYKASDLFLHRECWHSPMHHGSFSAATLADTLRNIQSRVEQAHKELKQLDRLMLTFGTAYVYEQKETGKVVANCHKLPEKNFIRRRLEIDEIVEDYTLLLDELISLNPQLKILFTVSPIRHIRDGMHANQLSKSVLLLAIDRLMQRYPQVTCYFPSYEIVLDELRDYRFYADDMVHPSTLTVNYLWERFSETFFTPETQSLIKECET”, the “soluble on expression in E. coli” value is “soluble”.
With “MEIIFYHPTFNAAWWVNALEKALPHARVREWKVGDNNPADYALVWQPPVEMLAGRRLKAVFVLGAGVDAILSKLNAHPEMLDASIPLFRLEDTGMGLQMQEYAVSQVLHWFRRFDDYQALKNQALWKPLPEYTREEFSVGIMGAGVLGAKVAESLQAWGFPLRCWSRSRKSWPGVESYVGREELRAFLNQTRVLINLLPNTAQTVGIINSELLDQLPDGAYVLNLARGVHVQEADLLAALDSGKLKGAMLDVFSQEPLPQESPLWRHPRVAMTPHIAAVTRPAEAIDYISRTITQLEKGEPVTGQVDRARGY” the entry was “not soluble”; with “KRGTDLGRPINATFDFFSRLFSKRKNVHMTFFNSSTPLDVNYTPNQQEIDTILDKISRSGYESLTKEEKQKLFKASQK”, “not soluble”; with “MSLGRGLYFNQAQKHFQQLLLMEERATIARELHDSLAQVLSYLRIQLTLLKRSIPEDNATAQSIMADFSQALNDAYRQLRELLTTFRLTLQQADLPSALREMLDTLQNQTSAKLTLDCRLPTLALDAQMQVHLLQIIREAVLNAMKHANASEIAVSCVTAPDGNHTVYIRDNGIGIGEPKEPEGHYGLNIMRERAERLGGTLTFSQPSGGGTLVSISFRSAEGEESQLMEGHHHHHH”, “soluble”.
With “MAHHHHHHMLSASSSSSELETADDASVEHAALAYERVRREHALQRYLKAREAYEVACIARERRQLVVQSHNHTLRLLGQVVCDVKAVVDGTLKEGLSVRESTATAAEMLLASSCYKRAERGLVTLLAHEGRQHEVLRAATSPATETSRIPQVFSSGSRAEKPVASSPAKHMLRPLLLLCEWRLDYATLLCRQRLPLFSELARAQRVVSNSRESAREARGRMSAPTTPVVQRCQVQVAEARASLAKARAFQRSLKDRLHQLHQMLSRSAPVHAESGVFVDAGVAEEIQARLRQELAVGHVTLLRILCESLSGAFDERGRLTAL” the entry was “not soluble”.
With “GPGSMLASTPGSNFGGAVASSNNNGGQQPQRRMHPIRPLTIKQMLEAQSVGGGVLVVDGREVTQATVVGRVVGYENANMASGGGAITAKHFGYRITDNTGMLVVRQWIDADRMQEPLAINTHVRASGTVNVWQQTPIVTGTVVSMADSNEMNYHMLDAILTHFRLTQGNKRAPSSGVSIQNTASAVGMHNMLPGGDNKVLLTDLLVSFIKQHGSSGAGMSMDELTTSAQRYGFTHGDVRTAMRTLAAEGKVYQTHDNRFNI” the entry was “soluble”.
As to “MRLLLFRQRNFRNLALEAYRPPPGLSALVGANAQGKTSLLLGIHLALGGEVPLGLADLVRFGEEEAWLHAEVETELGAYRLEHRLGPGGREVLLNGKRVSLRTLWELPGSVLVSPLDLEAVLGPKEERRAYLDRLIARFSRRYAALLSAYEKALRQRNALLKAGGEGLSAWDRELARYGDEIVALRRRFLRRFAPILREVHAALAAKEAGLRLEETAGEGVLRALEASRAEERERGQTLVGPHRDDLVFLLEGRPAHRFASRGEAKTLALALRLAEHRLLGEHHGEPPLLLVDEWGEELDEARRRAVLAYAQALPQAILAGLEAPPGVPVCSVVRGVVLCPGA”, the “soluble on expression in E. coli” value is given as “soluble”.
Then “GSHMGFLSGKRILVTGVASKLSIAYGIAQAMHREGAELAFTYQNDKLKGRVEEFAAQLGSDIVLQCDVAEDASIDTMFAELGKVWPKFDGFVHSIGFAPGDQLDGDYVNAVTREGFKIAHDISSYSFVAMAKACRSMLNPGSALLTLSYLGAERAIPNYNVMGLAKASLEANVRYMANAMGPEGVRVNAISAGPIRTLAASGIKDFRKMLAHCEAVTPIRRTVTIEDVGNSAAFLCSDLSAGISGEVVHVDGGFSIAAMNELELK”, with “soluble”; and “MGSDKIHHHHHHMDSLSSILKSVRLQGSVYFNACFASPWGLDLDQNQRAYFHLIIRGACYLQLGDKKEQLQGGDIIILPHGTAHQLFDDPSSVRVNATGVVPGLIDGINPFEGVGHSQDIDILCGYFNFNNSTPSYFLNALPDVIHLTQEHRTHFSFLDNALSFITQETKMKNLGREILIDRVTELLFVQIMRVYININGNEENIFSALSDRTLSEALQLMHTESDKNWTVESLAKAIGMSRSRFSEHFHNYIGETPMRYLHTCRMEVAKQKIEETESTLNIISEEVGYASDSAFKKAFKKFFGNTPSTFRQKNDK”, with “not soluble”.
Take “MGGEQRETNLSIRGKAYIVGAFEHPLRYAPAHSVAQLHAECALGALADAGLTLADVDGYFCAGDAGASPATLVDHMNLRLRHVDGTEIGGGSYLALIGHAAQAIASGKCRVALITLAGKPRSAGQATGTEARQPGPDRPASAWEAPYRWTVAGIYGNFARRHMHEYGTTSEQLAWVKVAASHHAQHNEHALLRKVYSVEDVLASPMIADPLHRLDCCVITDGGGALVLAAPEVARSLARPRIRVLGCGETIRTNNGGHHADMLHTGAQRSGPAAFAEAGVTPADIKYASVYDNFTIMVIMQLEDLGFCEKGAGGRFVADGNLISGTGRLPWNTDGGGLCNNHPANRGGITKAIEAVRQLRGEAHPSVQVPNCDLALAAGPGLVFGVGHSHATVILERE”: the “soluble on expression in E. coli” value was “not soluble”.
Then “MSKLCKEFSLSATVKNISRFVDEEIYYTDTEERFNIPWRMCIAKCDDEFSLGLKCEKNNWDNREWSIETDWTMKLVSHNGKSLMESKKFTFNNSNIFDGGLNTSWDLLESDYVVDDSVVVEAHVKIIKITDLPCDEDEDSKTFLLSSTVRNISSIEEGDDYYTETTIRHNIPWRMQIKRDDGFFGLFLRCEKEDCEDPGKSWSIELDYELRLVSLNGQSLTFSDSDLFIYPSGEGFQKFMRWDDMEEKYMVNGSIIIEARGKITSLEESDDESSSENEEDDSSESHSENDSSSDNLEDEFSECVINVGGQNYTVKKQ”, with “not soluble”.
As to “MAHHHHHHMMRIPPLVVCGPSGVGKGTLIKRLLGEFPSLFRFSISCTTRKKREKEMDGVDYYFVDKEDFEQKIKEEQFLEYDNYANNFYGTLKSEYDIAAGENKICLLEMNINGVKQLKESKHIEDGIYIFVKPPSIEILLKRLKNRNTENPEEIKKRMQELTREMDEADKVGFNYIIVNDDLARTYGELRKYLLGSYPQLGGA”, the “soluble on expression in E. coli” value was “soluble”.
Then “PWTQNKRNLKHLNQLKEDILNNFEDLKLKDEKIIVMLSGGKDSAVSLAVAKELGLNVHLCVHFVHKWSWDISTNEAKKLADRFNIPIIFPNVTEELAKKTQGAKGKSICRICKTIMKARMIDIAKEENAKIIMTGETALEKIAGPVFQYIRENNTNVKRKDEFELYKKMEITKVPKRYKIHFFRPLIRVGHFDVFNLQKYYNIDIKRVSE”, with “not soluble”; and “MFGKGENLAATDYQMVRHPDIHQAQCLYQTFRDKAVCLTGGDFTGRVIVCQHHGCGIVIQGAFNHFPGMDFRAVDGAGEEGFTGNQLILVIQIQHPELFTLQSRHVQNQPFPCRTGGGEGHAGFMKMAVQGFQGPQNETALAGRHFSGQKGNLLHCSCPLSVNNAHNGAAFRMLQGVIPQTVIMNRHGITLRTAGVMTVRHQTGGNAGGFRAHFSAVTVHDVKQHPCFVIIVIRFGCHKCATVVQGVQIPDTTAVVFIQTVHPAEDPGLQGHPLWNEAKMLRPEADALFIRDYGGNQLLQASLRCTGRRGGVLRQCFHV”, with “not soluble”; and “MGSDKIHHHHHHMERFCCVNQINYIQMNPLEAKFKTSALRSWKTDQADAHKLACLGPTLKQTDNLPIHELIFFELRERVRFHLEIENEQNRLKFQILELLHQTFPGLERLFSSRYSIIALNIAEIFTHPDMVLDIDKEVLITHIFNSTDKGMSMDKATKYALQLRVIAQESYPNVDRHSFLVEKLRLLIQQLKQSIHHPKQLDDAMIQLAQQLDYFENIHSIPGIGKLSTAMIIGEIGDIKRFKSNKQLNAFVGIDIKRYQSGHTHCRDTINKRGNKKARKLLFWVIMNIIRGQHHYDNHVVDYYYKLRKQPNEKPHKTAIIACINRLLKTIHYLVMNHKLYDYQMSPH”, with “not soluble”.
Then “MELKDGESAGNAENDVEIENPEKSEKAEILQSLDKSLGKSTEESPEAKNLRYFKTKKIRFGPIEYQIVTQNINGPCPLIALINALVLKGKLTIPSSYVVTSTNLLNLLTNVILARAPPENDEKLKETFEANLGDVMNIMETLVNGLDVNVKFSAVDTFEFTPALSLFDLVSVNLYHVWLPDPQFTVLYDLIRNLNYNELVEKMCGDQSTETELLRTFYDESISQITFHGLASLMERMKDGELAVVFHNNHFSTILKRRDEIFKLVSDEGLCDEPNIVWETFSSVDGDCIFVNGDFGNFKPITPPTTHPSPESFEKLQISDNSPIEQGIEAVEHTSAHHSAPVSPQHRAPAPPAPQTARAPPETSPTRNSGAGGKSCLIM”, with “soluble”; and “MAVNVYSTSVTSENLSRHDMLAWVNDSLHLNYTKIEQLCSGAAYCQFMDMLFPGCVHLRKVKFQAKLEHEYIHNFKVLQAAFKKMGVDKIIPVEKLVKGKFQDNFEFIQWFKKFFDANYDGKDYNPLLARQGQDVAPPPNPGDQIF”, with “soluble”; and “MKTHQYELIDEKVFEHEFDNGLKLFIIPKPGFQKTYVTYTTQFGSLDNHFKPIGSQQFVKVPDGVAHFLEHKLFEKEDEDLFTAFAEENAQANAFTSFDRTSYLFSATSNIESNIKRLLNMVETPYFTEETVNKEKGIIAEEIKMYQEQPGYKLMFNTLRAMYSKHPIRVDIAGSVESIYEITKDDLYLCYETFYHPSNMVLFVVGDVSPQSIIKLVEKH”, with “not soluble”.
Then “MSQYGFVRVPREVEKAIPVVNAPRPRAVVPPPNSETARLVREYAAKELTAPVLNHSLRVFQYSVAIIRDQFPAWDLDQEVLYVTCLLHDIATTDKNMRATKMSFEYYGGILSRELVFNATGGNQDYADAVTEAIIRHQDLTGTGYITTLGLILQIATTLDNVGSNTDLIHIDTVSAINEQFPRLHWLSCFATVVDTENSRKPWGHTSSLGDDFSKKVICNTFGYN”, with “not soluble”; and “MMKLNLFINANETESYIDIHAPKMNDHVQSIINAVNDLDKSHTLVGYIDKEIHIINVSDVITFQVINKNVTAITSNQKFKLKLRLYELEKQLPQHFIRISKSEIVNKYYIEKLLLEPNGLIRMYLKDAHYTYSSRRYLKSIKERLSI”, with “not soluble”; and “SNRFIAVFSDITRHKQTEEDLLRSEQHYRLLHETMLQGVVYQDASGKIISMNPAAERILGKTPAEFLGSSSVGEEYLTIREDGSMFPGLEHPAMVSLRTGQKVQGVVMGVYNPRENFYRWININAVPIFRTGEDRPFQVYTLFDDI”, with “not soluble”.
With “MKKSLGARTLAYPTPLFLVGTYDRDSRPNIMAAAWAGICCSQPPSIAVSLRKATYTYRSITERGAFTISIPSRAYVRHADYAGIYSGENEDKFASLGLTPVPGEHVDAPYVGEFPMAIELKLIHQIEIGLHTQFIGEIMDVKVDESCLRDDGLPDINKVDPVIFAPVSREYYAVGEFLAKAFSAGKGLRS”, the “soluble on expression in E. coli” value was “soluble”.
In the case of “MGSDKIHHHHHHMAAKKKSASSRKLNLGCGRDIREGWINLDSMALPGVDVVADLSLCATTPLPFEDSSIDEFLLSHLIEHIPDPLPLMQELWRIAKPGAKMQIRVPHGAHDDAWTNPTHVKPYFARSFGYFSQPWYWRADYGYRGDWQPELVTYSVPRRRFAGQMPAQILEQIDALRNVVQEMIVDLVAVKPLRQPKKDLMQAANIKIALME”, the “soluble on expression in E. coli” value is “not soluble”.
